Patent publication US20240150440A1 (LUMEN BIOSCIENCE, published 2024)

Tests used:
[1] = target: T1, SARS-CoV-2 spike protein on pseudotyped lentivirus (Wuhan Reference Pseudovirus) (SARS-CoV-2, UniProt P0DTC2 14-1273); assay: cell-based or functional assay
[2] = target: T2, recombinant SARS-CoV-2 RBD with C-terminal AviTag (SARS-CoV-2, UniProt P0DTC2 319-541); assay: BLI, biotinylated RBD on streptavidin biosensors; OR: over-range [Cont. 1]
[3] = target: T2, recombinant SARS-CoV-2 RBD with …; assay: ELISA, competition with coated ACE2-Fc for RBD [Cont. 4]
[4] = target: T2, recombinant SARS-CoV-2 RBD with …; assay: BLI, biotinylated RBD on streptavidin biosensors; OR: over-range [Cont. 4]
[5] = target: T3, SARS-CoV-2 Gamma Variant RBD (SARS-CoV-2 Gamma variant); assay: ELISA, RBD coated
T3 construct: domain: RBD; coated on ELISA plates

[6] = target: T4, SARS-CoV-2 Delta Variant RBD (SARS-CoV-2 Delta variant); assay: ELISA, RBD coated
T4 construct: domain: RBD; coated on ELISA plates

[7] = target: T5, SARS-CoV-2 Alpha Variant RBD (SARS-CoV-2 Alpha variant); assay: ELISA, RBD coated
T5 construct: domain: RBD; coated on ELISA plates

[8] = target: T6, SARS-CoV-2 Beta Variant RBD (SARS-CoV-2 Beta variant); assay: ELISA, RBD coated
T6 construct: domain: RBD; coated on ELISA plates

[9] = target: T1, SARS-CoV-2 spike protein on pseudotyped …; assay: cell-based or functional assay; remark: listed apart in the source
[10] = target: T1, SARS-CoV-2 spike protein on pseudotyped …; assay: cell-based or functional assay; remark: listed apart in the source
[11] = target: T2, recombinant SARS-CoV-2 RBD with …; assay: BLI, biotinylated RBD on streptavidin biosensors [Cont. 2]
[12] = target: T2, recombinant SARS-CoV-2 RBD with …; assay: BLI, biotinylated RBD on streptavidin biosensors; OR: over-range [Cont. 2]
[13] = target: T2, recombinant SARS-CoV-2 RBD with …; assay: BLI, biotinylated RBD on streptavidin biosensors [Cont. 4]
[14] = target: T1, SARS-CoV-2 spike protein on pseudotyped …; assay: cell-based or functional assay; remark: listed apart in the source
[15] = target: SARS-CoV-2 Delta Variant spike protein on pseudotyped lentivirus (SARS-CoV-2 Delta variant); assay: cell-based or functional assay
[16] = target: T1, SARS-CoV-2 spike protein on pseudotyped …; assay: cell-based or functional assay; remark: listed apart in the source
[17] = target: T2, recombinant SARS-CoV-2 RBD with …; assay: ELISA, competition with coated ACE2-Fc for RBD [Cont. 1]
[18] = target: T1, SARS-CoV-2 spike protein on pseudotyped …; assay: cell-based or functional assay; remark: listed apart in the source

B1: PP811 MBP-R2D-D3-H6 (VHH)
VHH: QVQLVESGGGLVQPGGSLRLSCAASGHIFSINNAAWVRQAPGKSREGVATIHSGGGTYYSDSVKGRFTISRDNAKNTVYLQMNSLKPEDTAVYYCNAEVSTGAGSRGRVSDVYWGQGTQVTVSS
notes: Form: Monomer
- infectivity % under 10 ug/mL VHH treatment [1]: 75.9%
- Kd [2]: ~27000 nM

B2: PP837 MBP-R5D-B2-H6 (VHH)
VHH: QVQLVESGGGLVQPGGSLRLSCAASGSIWSIAFMSWYRQAPGKGREWVAAITTGNDEAYADSVKGRFTISRDNAKNTVYLQMNSLKPEDTAVYYCAANTYERTPDGRTFSYWGQGTQVTVSS
notes: Form: Monomer
- IC50 [3]: 3.7 nM
- infectivity % under 10 ug/mL VHH treatment [1]: 77.6%
- Kd [4]: ~2350 nM

B3: PP1097 MBP-5HVZ-PAPA-RN-5-H6 (VHH)
VHH: QVQLVESGGGLVQPGGSLRLSCAASGSSFRILAMHWYRQAPGKNREWVAVITSNGNTYYADSVKGRFTISRDNAKNTVYLQMNSLKPEDTAVYYCNADTLDLDDGATYNYWGQGTQVTVSS
- EC50 [5]: 58.6 nM
- EC50 [6]: 244 nM
- EC50 [7]: 0.3 nM
- EC50 [8]: 95.4 nM
- infectivity % under 10 ug/mL VHH treatment [1]: 18.6%
- Pseudovirus neutralization IC50 [9]: 27.3 nM
- Pseudovirus inhibition IC50 [Cont. 8] [10]: 54.5 nM

B4: PP821 MBP-R5A-D6-H6 (VHH)
VHH: QVQLVESGGGLVQPGGSLRLSCAASGNDWYINSAHWYRQAPGKEREFVASVSRGGSNNYRDSVKGRFTISRDNAKNTVYLQMNSLKPEDTAVYYCAALLETSSGDYTYWGQGTQVTVSS
notes: Form: Monomer
- infectivity % under 10 ug/mL VHH treatment [1]: 76.7%
- Kd [11]: 100 nM

B5: PP815 MBP-R5A-A1-H6 (VHH)
VHH: QVQLVESGGGLVQPGGSLRLSCAASGAELSYTAIHWFRQAPGKQREFVATINSGGSSYYADSVKGRFTISRDNAKNTVYLQMNSLKPEDTAVYYCTALLDSTYDYWGQGTQVTVSS
notes: Form: Monomer
- infectivity % under 10 ug/mL VHH treatment [1]: 84.4%
- Kd [12]: ~2700 nM

B6: PP1100 MBP-5HVZ-PAPA-RN-14-H6 (VHH)
VHH: QVQLVESGGGLVQPGGSLRLSCAASGENFSGNLVHWFRQAPGKAREGVATVTSTGSGYYADSVKGRFTISRDNAKNTVYLQMNSLKPEDTAVYYCAAKHQKGEIPYYDWGQGTQVTVSS
notes: Form: Dimer
- EC50 [6]: 46.5 nM
- EC50 [7]: 0.35 nM
- infectivity % under 10 ug/mL VHH treatment [1]: 17.2%
- Pseudovirus neutralization IC50 [9]: 6.95 nM
- Pseudovirus inhibition IC50 [Cont. 8] [10]: 13.9 nM

B7: PP831 MBP-R5C-F3-H6 (VHH)
VHH: QVQLVESGGGLVQPGGSLRLSCAASGTIPSINYTAWYRQAPGKQRELVASLTSGDNRYYTDSVKGRFTISRDNAKNTVYLQMNSLKPEDTAVYYCNAKTVGSSYRDSYNYWGQGTQVTVSS
notes: Form: Monomer
- IC50 [3]: 151 nM
- infectivity % under 10 ug/mL VHH treatment [1]: 81.2%
- Kd [4]: ~5370 nM

B8: PP814 MBP-R2E-F4-H6 (VHH)
VHH: QVQLVESGGGLVQPGGSLRLSCAASGETFSSNAMHWFRQAPGKGREFVAAITSGGNDNYSDSVKGRFTISRDNAKNTVYLQMNSLKPEDTAVYYCNAPATEDTSHYPRNYWGQGTQVTVSS
notes: Form: Monomer
- infectivity % under 10 ug/mL VHH treatment [1]: 84.7%
- Kd [12]: ~1600 nM

B9: PP834 MBP-R5C-G2-H6 (VHH)
VHH: QVQLVESGGGLVQPGGSLRLSCAASGSATSINRMAWVRQAPGKEREWVAVIDSGGYTYYADSVKGRFTISRDNAKNTVYLQMNSLKPEDTAVYYCNAVPVTTDKTPMYQYWGQGTQVTVSS
notes: Form: Monomer
- IC50 [3]: 184 nM
- infectivity % under 10 ug/mL VHH treatment [1]: 89.2%
- Kd [4]: ~2120 nM

B10: MBP-5HVZ-R5C-G2-H6 (VHH)
VHH: QVQLVESGGGLVQPGGSLRLSCAASGSATSINRMAWVRQAPGKEREWVAVIDSGGYTYYADSVKGRFTISRDNAKNTVYLQMNSLKPEDTAVYYCNAVPVTTDKTPMYQYWGQGTQVTVSS
notes: dimer
- IC50 [3]: 121 nM
- Kd [13]: 29.6 nM

B11: PP833 MBP-R5C-F6-H6 (VHH)
VHH: QVQLVESGGGLVQPGGSLRLSCAASGQTNSILAMHWYRQAPGKQREAVATITSGSNSTYADSVKGRFTISRDNAKNTVYLQMNSLKPEDTAVYYCAARNGKLSPKANQRLYWGQGTQVTVSS
notes: Form: Monomer
- infectivity % under 10 ug/mL VHH treatment [1]: 86.2%
- Kd [13]: 100 nM

B12: PP1148 MBP-5HVZ-PAPA-R5a-C5-H6 (VHH)
VHH: QVQLVESGGGLVQPGGSLRLSCAASGDIFSINALHWFRQAPGKQREEVAAITSGGSTGYADSVKGRFTISRDNAKNTVYLQMNSLKPEDTAVYYCAAQQARGGLDSDYWGQGTQVTVSS
notes: Form: Dimer
- Pseudovirus inhibition IC50 [Cont. 2] [14]: 4.7 nM
- EC50 [5]: 9.06 nM
- EC50 [6]: 0.22 nM
- EC50 [7]: 0.33 nM
- EC50 [8]: 30.5 nM
- infectivity % under 10 ug/mL VHH treatment [1]: 5.95%
- Pseudovirus neutralization IC50 [9]: 15.7 nM
- Pseudovirus neutralization IC50 [15]: 0.53 nM

B13: PP1136 MBP-4B0F-PAPA-R5a-C5-H6 (VHH)
VHH: QVQLVESGGGLVQPGGSLRLSCAASGDIFSINALHWFRQAPGKQREEVAAITSGGSTGYADSVKGRFTISRDNAKNTVYLQMNSLKPEDTAVYYCAAQQARGGLDSDYWGQGTQVTVSS
notes: Form: Heptamer
- Pseudovirus inhibition IC50 [Cont. 2] [14]: 0.35 nM
- infectivity % under 10 ug/mL VHH treatment [1]: 1.53%
- Pseudovirus neutralization IC50 [9]: 0.05 nM

B14: PP817 MBP-R5A-B3-H6 (VHH)
VHH: QVQLVESGGGLVQPGGSLRLSCAASGQLDRSNAMAWFRQAPGKGREWVASITSGASTQYADSVKGRFTISRDNAKNTVYLQMNSLKPEDTAVYYCAADRYRAIQRTQYSWGQGTQVTVSS
notes: Form: Monomer
- infectivity % under 10 ug/mL VHH treatment [1]: 80%
- Kd [12]: ~5170 nM

B15: PP1149 MBP-5HVZ-PAPA-R5a-E5-H6 (VHH)
VHH: QVQLVESGGGLVQPGGSLRLSCAASGYDFDILRMAWFRQAPGKEREMVAAITSAESVNYEDSVKGRFTISRDNAKNTVYLQMNSLKPEDTAVYYCATYDYTDDYGYASWGQGTQVTVSS
notes: Form: Dimer
- Pseudovirus inhibition IC50 [Cont. 2] [14]: 74.7 nM
- EC50 [5]: 134 nM
- EC50 [7]: 3.01 nM
- EC50 [8]: 58 nM
- infectivity % under 10 ug/mL VHH treatment [1]: 25.5%
- Pseudovirus neutralization IC50 [9]: 37.3 nM

B16: MBP-5HVZ-R5B-G1-H6 (VHH)
VHH: QVQLVESGGGLVQPGGSLRLSCAASGSIGQIVLVHWFRQAPGKQRELVAGITSPSSTYYADSVKGRFTISRDNAKNTVYLQMNSLKPEDTAVYYCNTELEGKTQGFTGKTVWYDYWGQGTQVTVSS
- Pseudovirus inhibition IC50 [Cont. 3] [16]: 5.82 nM

B17: PP810 MBP-R2D-A6-H6 (VHH)
VHH: QVQLVESGGGLVQPGGSLRLSCAASGSGASIGAMHWFRQAPGKGREWVASITSAGNTYYGDSVKGRFTISRDNAKNTVYLQMNSLKPEDTAVYYCNALAGANYESQWEEYNYWGQGTQVTVSS
notes: Form: Monomer
- infectivity % under 10 ug/mL VHH treatment [1]: 77.5%
- IC50 [17]: 0.1 nM
- Kd [2]: ~4600 nM

B18: PP836 MBP-R5D-A1-H6 (VHH)
VHH: QVQLVESGGGLVQPGGSLRLSCAASGSISSYNAMHWFRQAPGKQREWVAGLTSSGSDGYVDSVKGRFTISRDNAKNTVYLQMNSLKPEDTAVYYCNAFSYHTYSRYDFWGQGTQVTVSS
notes: Form: Monomer
- IC50 [3]: 6.2 nM
- infectivity % under 10 ug/mL VHH treatment [1]: 55%
- Kd [13]: 527 nM

B19: PP935 MBP-5HVZ-S3b-E11-H6 (VHH)
VHH: QVQLVESGGGLVQPGGSLRLSCAASGDIYSQSAMAWYRQAPGKEREFVAAITTTGSRSYKDSVKGRFTISRDNAKNTVYLQMNSLKPEDTAVYYCAAFAVRSSSVSDAYDYWGQGTQVTVSS
notes: Form: Dimer
- EC50 [5]: 167 nM
- EC50 [6]: 151 nM
- EC50 [7]: 0.47 nM
- EC50 [8]: 343 nM
- infectivity % under 10 ug/mL VHH treatment [1]: 48.9%
- Pseudovirus neutralization IC50 [9]: 34.2 nM
- Pseudovirus inhibition IC50 [Cont. 8] [10]: 68.4 nM

B20: dimeric VHH (VHH-5HVZ-MBP) R2C-F6 (VHH)
VHH: QVQLVESGGGLVQPGGSLRLSCAASGRILAANIVHWYRQAPGKEREGVAGITTGGSNYYSDSVKGRFTISRDNAKNTVYLQMNSLKPEDTAVYYCNALGLGSASGSYESWGQGTQVTVSS
- IC50 [17]: 6.5 nM
- Kd [2]: ~0.96 nM
- Pseudovirus inhibition IC50 [Cont. 1] [18]: 92.4 nM
